Assays:
[1] = molecular target: T1, recombinant human PD-L1 Fc fusion (human, UniProt Q9NZQ7 19-239); assay: ELISA on immobilized recombinant human PD-L1-Fc (2 µg/mL), detection with Protein L-HRP, A450 nm
T1 construct: Bought Fc fusion (RnD Systems 156-B7); also called rhPD-L1 Fc fusion; not shown: Fc part of the bought fusion
Protocol: After, blocking with 5% non-fat dry milk, increasing concentrations of scFv was added and detected by Protein L-HRP (Sigma-Aldrich).

[2] = molecular target: monkey PD-L1 Fc fusion (monkey (Rhesus macaque, Macaca mulatta)) (UniProt F6PJN1); assay: KinExA, room temperature, two curves (50 pM and 10 pM scFv)
[3] = molecular target: monkey PD-L1 Fc fusion (monkey (Rhesus macaque, Macaca mulatta)) (UniProt F6PJN1); assay: KinExA, ratio of KD values

T1 sequence (Q9NZQ7 19-239 limits assumed): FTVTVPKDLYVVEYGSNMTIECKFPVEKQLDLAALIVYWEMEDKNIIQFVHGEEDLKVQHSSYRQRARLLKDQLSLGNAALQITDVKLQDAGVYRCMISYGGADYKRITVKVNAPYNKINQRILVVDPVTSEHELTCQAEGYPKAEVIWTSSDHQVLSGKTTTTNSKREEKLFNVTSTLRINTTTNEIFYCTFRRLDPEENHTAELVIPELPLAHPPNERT

B1: anti-PD-L1 scFv (scFv)
scFv: EIVMTQSPSTLSASVGDRVIITCQASEDIYSLLAWYQQKPGKAPKLLIYDASDLASGVPSRFSGSGSGAEFTLTISSLQPDDFATYYCQGNYGSSSSSSYGAVFGQGTKLTVLGGGGGSGGGGSGGGGSGGGGSEVQLVESGGGLVQPGGSLRLSCTVSGIDLSSYTMGWVRQAPGKGLEWVGIISSGGRTYYASWAKGRFTISRDTSKNTVYLQMNSLRAEDTAVYYCARGRYTGYPYYFALWGQGTLVTVSS
notes: Humanized scFv with rabbit CDRs, VL-linker-VH; also called scFv1; scFv control
For B1, the “EC50 (read off the curve)” value [1] was roughly 8 ng/mL, the Kd [2] was 3.3 pM and the fold tighter affinity than binding to human PD-L1 [3] was 2.7 fold.

From patent US20190048085A1 (CELL MEDICA SWITZERLAND, published 2019)
